Results published in article PMC3893532.

Test: confocal immunofluorescence, transfected hippocampal neurons
Details: glycan lost; control: wild-type seipin

Protein	localisation_or_trafficking
seipin: N88S (protein) parent chain: MVNDPPVPALLWAQEVGQVLAGRARRLLLQFGVLFCTILLLLWVSVFLYGSFYYSYMPTVSHLSPVHFYYRTDCDSSTTSLCSFPVANVSLTKGGRDRVLMYGQPYRVTLELELPESPVNQDLGMFLVTISCYTRGGRIISTSSRSVMLHYRSDLLQMLDTLVFSSLLLFGFAEQKQLLEVELYADYRENSYVPTTGAIIEIHSKRIQLYGAYLRIHAHFTGLRYLLYNFPMTCAFIGVASNFTFLSVIVLFSYMQWVWGGIWPRHRFSLQVNIRKRDNSRKEVQRRISAHQPGPEGQEESTPQSDVTEDGESPEDPSGTEGQLSEEEKPDQQPLSGEEELEPEASDGSGSWEDAALLTEANLPAPAPASASAPVLETLGSSEPAGGALRQRPTCSSS	changes
seipin: S90L (protein) parent chain: MVNDPPVPALLWAQEVGQVLAGRARRLLLQFGVLFCTILLLLWVSVFLYGSFYYSYMPTVSHLSPVHFYYRTDCDSSTTSLCSFPVANVSLTKGGRDRVLMYGQPYRVTLELELPESPVNQDLGMFLVTISCYTRGGRIISTSSRSVMLHYRSDLLQMLDTLVFSSLLLFGFAEQKQLLEVELYADYRENSYVPTTGAIIEIHSKRIQLYGAYLRIHAHFTGLRYLLYNFPMTCAFIGVASNFTFLSVIVLFSYMQWVWGGIWPRHRFSLQVNIRKRDNSRKEVQRRISAHQPGPEGQEESTPQSDVTEDGESPEDPSGTEGQLSEEEKPDQQPLSGEEELEPEASDGSGSWEDAALLTEANLPAPAPASASAPVLETLGSSEPAGGALRQRPTCSSS	changes
